From the supplement of paper PMC9170038 come the findings set out here.

In this data set the test system is MS2 coat protein. Description: apparent KD of MS2 coat protein; designed switch direction (-1 OFF switch, 1 ON switch): 1; higher = weaker reporter binding. Summed up:
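Apparent KD, taken as the median over clusters for each design, was obtained by curve-fitting normalised cluster fluorescence. Designed RNA switches had been transcribed on Illumina chips by stalled E. coli RNA polymerase and titrated with SNAP-549-labelled MS2 coat protein, doubling from 0.7 or 1.5 nM to 3 µM.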

Setting [1] is: input ligand: microRNA oligo, concentration not stated.
[2] abbreviates: Eterna round: R95, input ligand: FMN 200 uM.
[3] abbreviates: Eterna round: R95, input ligand: microRNA oligo, concentration not stated.
[4] abbreviates: Eterna round: R95, input ligand: none.

For the sequence “CCGAUGCUUAUAAACAUGAGGAUCACCCAUGUGAGGACACAUGAGGAUAUGCAGGUCAAAGACUUGCAGAAGGCAUAGCGUCGG [JL SSNG3 3.89] (Eterna round: R96, puzzle: Same State NG 3)”, the “apparent KD of MS2 coat protein” value was 40.7 nM (input ligand: FMN 200 uM), 158 nM under setting [1] and 305 nM (input ligand: none).

In the case of “CCGUAGAUGGUAGGAUAUGGAGCCUUAUUGGCUCCAGAAGGAUCGAAAACAUGAGGAUCACCCAUGUCGGCGGUCAAUAGACCG [Eli NG1ss - 84] (Eterna round: R96, puzzle: Same State NG 1)”, the “apparent KD of MS2 coat protein” value is, setting by setting: (input ligand: FMN 200 uM) 21.8 nM; under setting [1], 43.1 nM; (input ligand: none) 34.1 nM.

For the sequence “CGAUGAAACUAAGGAAGAAGAGUUGAAGUACAUGAGGAUCACCCAUGUCAGAGCUUUUUGCUCGUCAUGAACAGGAA [JR_SHM208a_Sub005] (puzzle: Sensor for hsa-mir-208a)”, the “apparent KD of MS2 coat protein” value reads like this: under setting [2], 51.9 nM; under setting [3], 32.2 nM; under setting [4], 52.8 nM.

As for “CGCAAAGUGUGAGGAUAUUCACACAUGAGGAUCACCCAUGUGACGGUUCCGGCCAGAGGAGAGCAGGAGAAGGCACAACGCGAG [Eternabot solution 5] (Eterna round: R96, puzzle: Same State NG 2)”, the “apparent KD of MS2 coat protein” value reads like this: (input ligand: FMN 200 uM) 36.1 nM; under setting [1], 101 nM; (input ligand: none) 120 nM.

As to “CGCAGGCACGUAGGAUAUCUAGCGUGGGAGGCUAGAGAAGGAUGGAAUAACAUGAGGAUCACCCAUGUCGCCUCGCGGAAAUAA [Diorverire] (Eterna round: R96, puzzle: Same State NG 1)”, the “apparent KD of MS2 coat protein” value (input ligand: FMN 200 uM) turned out to be 15.5 nM, the “apparent KD of MS2 coat protein” value under setting [1] is 17.4 nM and the “apparent KD of MS2 coat protein” value (input ligand: none) amounted to 32.8 nM.

For “CGGAAAAUCGUAGGAUAUCUAGGAUAUGAACGAGGAUCACCCGAGCAGCAUCAGCGCAUCAGAGGAGAGAAGGACGAUGAUGCG [pwkr ssNG2 2F5 2FMN.5] (Eterna round: R96, puzzle: Same State NG 2)”, the “apparent KD of MS2 coat protein” value turned out to be 1930 nM (input ligand: FMN 200 uM), 1100 nM under setting [1] and 1510 nM (input ligand: none).

Take “CGGGUAAUCGUAGGAUAUCUAGGAUAUGAACGAGGAUCACCCGAGCAGCAUCAGCGCAUCAGAGGAGAGAAGGACGAUGAUGCG [pwkr ssNG2 2F5 2FMN.18] (Eterna round: R96, puzzle: Same State NG 2)”: the “apparent KD of MS2 coat protein” value was 164 nM (input ligand: FMN 200 uM), 199 nM under setting [1] and 470 nM (input ligand: none).

Turning to “CGGGUGAUCGUAGGAUAUCUAGGAUAUGAACGAGGAUCACCCGAGCAGCAUCAGCGCAUCAGAGGAGAGAAGGACGAUGAUGCG [pwkr ssNG2 2F5 2FMN.19] (Eterna round: R96, puzzle: Same State NG 2)”, the “apparent KD of MS2 coat protein” value by setting is: (input ligand: FMN 200 uM) 20.5 nM; under setting [1], 21.7 nM; (input ligand: none) 34 nM.

For the sequence “CGGGUGGUUCUAGGAUAUCUAGGAUAUGGACGAGGAUUACCCGAGCAGCAUCAGCGCACCAGAGGAGAGAAGGAGAGUCAUGCG [pwkr ssNG2 2F5 2FMN.9] (Eterna round: R96, puzzle: Same State NG 2)”, the “apparent KD of MS2 coat protein” value (input ligand: FMN 200 uM) turned out to be 105 nM, the “apparent KD of MS2 coat protein” value under setting [1] is 72.5 nM and the “apparent KD of MS2 coat protein” value (input ligand: none) is 86.8 nM.

On to “CGUCCAGCCUGAGCUGGACAAAAGCAUGUACAUGAGGAUCACCCAUGUUCAUGUACAAGCUUUUUGCUCGUCUUACU [salish99_208a_r3_092x] (puzzle: Sensor for hsa-mir-208a)”, for which the “apparent KD of MS2 coat protein” value runs as follows: under setting [2], 590 nM; under setting [3], 15.7 nM; under setting [4], 793 nM.

Regarding “CUAUCUACAGGUGUCAUUGCUCGUCUUAUACAUGAGGAUCACCCAUGUUAUAGCCCGGUGCUUGCGCUGGGCUGAUU [JL ViennaUCT Tearor mod 5] (puzzle: Sensor for hsa-mir-208a)”, the “apparent KD of MS2 coat protein” value by setting is: under setting [2], 114 nM; under setting [3], 15.5 nM; under setting [4], 99.9 nM.
